Source: a protein production outcome set (Wang et al. 2014)

Assay: label from the status in PepcDB records

For “MSRTIAETPRPAVASMSSGCIPPHHRPDTLKQRWGTPAAVCLLVTCLFAMTLLTTGCKPPRRTPPTLPDRPDMATVEQPVVPPATVDGKDLDAPQTPKERIALALRLLDDGGDGADPTQAVQLIEQDATTGYAPAQDLLARLSLEGYGTAKDPARAFALAIEAARQGLPDAQRLAGTMYTLGLGTARDLEQGMRWLREAADAGDGEAAAMVADYYRQGLGVERNDTEAFLWTHRAAERGVKRAALWLGLHYHYGVGTPADQKQAFALLRPFADEGDAEALTIIALLLHKGEGVAQDRKAALRYFEKGAAAGDPVAQLDLGVLYHQGDGVTRDMDKARGLFRQCAEGGNARCMTLYASMLEEGEGGPSDPAEALAWYMVASMAGDDDATPFLDDLRSRITAEQAAQGKVRATAIIRSLTASPAADEASRQSSGQTAGQASGHASGQTPESTSARTSAPVPSALPREAAGKRPTVLP”, the protein production was “failed”.

For “MNQVEMTEFPVGKPQEALYGVASTPDGALWFTLAKGNAIGRLSPDGAVSRFPLPHTDGQPTTITCGPDGRPWFTLSSANAIGRLAPDGALRMFELPRPASRPFGIAGGHDGCLWFAEMAGDRIGRITIDGDIEEYDLPVKGGYPSCMAAGRDGLMWFTLNQAGAVGSISATAAPRIFPLGAADAAPVGIASDAQGALWIAQAGNGAIVRFDAGGRITEFPLHSRAARPHAIAADAAGNLWFTEWGANRIGRISEAGDLAGYELAAPGSEPHGIAIDPHGCVWAALETGRLVRLQASPRDLEHHHHHH”, the protein production was “not failed”.

In the case of “MTDKRGNNGKTGLLFPAIFTIFVSIYAAGNYYVGLRFFQSIQSLIEPYSLFYWSGYAFLVISLFAGRLGKRFYPGYVNDLFAVTGNYWVGAVYYSLLIWAGIDVLHFLTSLIFPATRIIKYPSFYFGLAVLLLVFLLLLYGTWNARHPRIVHYDITIKKSVPDLPELHAVMVSDIHLGLVVDKDRLKEMVNRINELDPDVVFLAGDTIDEDVRLFASNKMPEILKKLKSRYGVYAVLGNHEYIGGNNELAVEYLQQAGIHVLVDKCIKVNNHFYVAGRDDRVAGRMNGKKRLELSRLVDGIDHTLPIILLDHQPINLKEGQLNGIDLQLSGHTHAGQFFPNTLISKRVFENSWGYLKKGECQIIVSAGFGTWGPPIRIGSNSEITDIKISFV”, the protein production is reported as “failed”.

In the case of “TSVKEFAMKHDHFVVQSPDKPAQQLLLLFHGVGDNPVAMGEIGSWFAPLFPDALVVSVGGAEPSGNPAGRQWFSVQGITEDNRQARVDAIMPTFIETVRYWQKQSGVGANATALIGFSQGAIMALESIKAEPGLASRVIAFNGRYASLPETASTATTIHLIHGGEDPVIDLAHAVAAQEALISAGGDVTLDIVEDLGHAIDNRSMQLALDHLRYTIPKHY”, the protein production is reported as “failed”.

In the case of “MLNSAGKLIYGLCFLLVVCVNNAMAEVIHSERSLYRNILVEDNGDLRCLKFNVKSTKTRQSCLLKSQPQQLVFNYTKQLLTGLLVNPEPKHILIIGLGGGTMSNTLHQLLPDSYIDNVEIDESVIKVARQYFGFLENDQIKTYSQDGRVFVKRALLKKQEYDWIILDAFNGDYIPEHLMTKEYLEETKRLLSPQGILTANTFSSSQLYRYESATYKAVFGDYYQVSNPDNSNRIILARNSGLDENLYKELAAAEQSESITQLAIKLLAIGVEVKQLYKNIKSTATHQDWPDDSPVLTDQFSPANLLNIDVD”, the protein production is reported as “failed”.

For “MVMMFIGIDDTDSPNKYCTTYIATLLIEELKGCGYSVDMPKLIRMNPMVKYKTRGNGGVAIHILDELYSKDKEEIKNITISLVEKYTDFECENTNPGIVFLDEAKYKENREKLTNYYKKVLYDIVSVDYAEKFILKVGGEFIKYKLGRGIIGALGAISSTPPYTYELLAYRKKEMWGKKREIDEKSVIEMDKETFPYTFDNYDYENEKILIAPNTPCPVLFGIRGIDAEILLKAMHKIEGEKPERFMIFKTNHGTDVHLRKMNIKDIYPNTGVIVYGRVVEEPRDIEGGHVIFKLSDGTGEIDCMAYEPTKGFRDIIRKLIVGDYIAVYGTVREKPLGINIEKIKILKLEKKFVKDKRCPYCGGTLKAKGKKAGYKCKKCKKTIAYDEIKMIEVERDLKTGFYEVPGSARRHLSKPIQLIDLI”, the protein production was “not failed”.

In the case of “MNTVCTACMATNRLPEERIDDGAKCGRCGHSLFDGEVINATAETLDKLLQDDLPMVIDFWAPWCGPCRSFAPIFAETAAERAGKVRFVKVNTEAEPALSTRFRIRSIPTIMLYRNGKMIDMLNGAVPKAPFDNWLDEQLSRDPNS”, the protein production is reported as “not failed”.

With “MPPPLPYDAMRSVWTDTAAPAMATAPLAGHADCDVAIVGAGITGLSAALHLAERGLRACVLEARDPGWGASGRNGGQVIPGIKHDPDEILARHGRERGEPLLHMVGTAADTVFDLIDRYGLDLVQAQIRLAAGERLDRVVPADLQPSGHAIELRVYAEDPVRFIPSPGTLAVFELPQGPGVRTETGYHAGNAVSPHYDPMIAKIIVHGADRAQAIARAEQALADTEIAGVKTNLPFLARALAFEPWRQGRLHTGIVARTLAEPAPAALTALEHHHHHH” the protein production was “failed”.
